Laboratory results published in US20250152729A1 (CANCER RESEARCH TECHNOLOGY, published 2025).

T1: human SEMA4A expressed on cells (UniProt ID Q9H3S1, isoform 1) (human, UniProt Q9H3S1 33-761)
T1 sequence: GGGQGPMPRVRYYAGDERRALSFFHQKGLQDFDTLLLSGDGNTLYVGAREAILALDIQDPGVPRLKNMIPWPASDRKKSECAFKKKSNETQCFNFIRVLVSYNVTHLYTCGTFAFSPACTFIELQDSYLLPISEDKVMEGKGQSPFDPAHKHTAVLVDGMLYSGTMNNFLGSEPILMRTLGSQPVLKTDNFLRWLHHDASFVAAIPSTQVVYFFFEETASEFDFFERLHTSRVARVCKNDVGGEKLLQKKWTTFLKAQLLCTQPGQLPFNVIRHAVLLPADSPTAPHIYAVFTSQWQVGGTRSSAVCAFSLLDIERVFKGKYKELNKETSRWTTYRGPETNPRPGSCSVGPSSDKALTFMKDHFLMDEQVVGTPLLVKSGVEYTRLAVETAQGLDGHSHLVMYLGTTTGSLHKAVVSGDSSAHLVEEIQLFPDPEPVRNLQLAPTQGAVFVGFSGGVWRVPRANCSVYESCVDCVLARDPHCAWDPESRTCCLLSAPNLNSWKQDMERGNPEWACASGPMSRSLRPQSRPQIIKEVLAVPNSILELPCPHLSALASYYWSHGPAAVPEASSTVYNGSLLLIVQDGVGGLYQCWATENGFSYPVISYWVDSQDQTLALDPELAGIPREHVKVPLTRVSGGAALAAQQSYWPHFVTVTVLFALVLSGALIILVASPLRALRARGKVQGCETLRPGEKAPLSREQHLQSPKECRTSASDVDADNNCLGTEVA

T2: mouse SEMA4A expressed on expi293 cells (UniProt ID Q62178) (mouse, UniProt Q62178 33-760)
T2 construct: Transient transfection in expi293 cells
T2 sequence: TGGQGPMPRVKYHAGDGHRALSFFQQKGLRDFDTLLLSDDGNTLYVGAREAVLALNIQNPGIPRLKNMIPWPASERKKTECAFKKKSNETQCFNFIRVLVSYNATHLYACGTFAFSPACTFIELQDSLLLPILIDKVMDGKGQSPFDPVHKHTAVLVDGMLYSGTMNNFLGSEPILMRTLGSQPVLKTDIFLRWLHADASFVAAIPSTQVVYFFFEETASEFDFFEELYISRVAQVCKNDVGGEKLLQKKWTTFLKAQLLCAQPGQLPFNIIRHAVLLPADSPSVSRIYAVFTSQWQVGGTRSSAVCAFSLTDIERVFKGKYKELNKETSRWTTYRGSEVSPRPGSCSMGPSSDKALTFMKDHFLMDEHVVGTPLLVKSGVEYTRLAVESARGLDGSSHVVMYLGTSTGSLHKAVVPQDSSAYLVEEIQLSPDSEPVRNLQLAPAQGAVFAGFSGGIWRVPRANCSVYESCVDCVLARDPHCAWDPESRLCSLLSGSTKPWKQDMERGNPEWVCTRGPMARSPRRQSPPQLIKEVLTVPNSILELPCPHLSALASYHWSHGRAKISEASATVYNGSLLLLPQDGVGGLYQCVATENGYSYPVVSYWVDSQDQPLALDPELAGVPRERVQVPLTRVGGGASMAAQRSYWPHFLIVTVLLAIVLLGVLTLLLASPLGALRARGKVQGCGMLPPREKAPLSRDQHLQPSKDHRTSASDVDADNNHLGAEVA

B1: 5Hg4-5Lg5 human Alya IgG1 (antibody, V domains shown)
VH: QVQLVQSGSELKKPGASVKVSCKASGYTFTDYWMHWVRQAPGQGLEWMGAIDTSDSYTSYNQKFKGRFVFSLDTSVSTAYLQICSLKAEDTAVYYCARDYGNFYYYAMDYWGQGTLVTVSS
VL: QSVVTQPPSVSGAPGQRVTISCRSSTGAVTTSNYANWYQQLPGTAPKLLIYGTNNRAPGVPDRFSGSKSGASASLAITGLQAEDEADYYCALWYSNHWVFGGGTKLTVL
notes: Humanised 5E3; human IgG1 Alya constant (239iCys, S442C, EU), lambda light chain; purified, unconjugated
B2: 5Hg4-5Lg1 human Alya IgG1 (antibody, V domains shown)
VH: QVQLVQSGSELKKPGASVKVSCKASGYTFTDYWMHWVRQAPGQGLEWMGAIDTSDSYTSYNQKFKGRFVFSLDTSVSTAYLQICSLKAEDTAVYYCARDYGNFYYYAMDYWGQGTLVTVSS
VL: QAVVTQEPSLTVSPGGTVTLTCRSSTGAVTTSNYANWFQQKPGQAPRTLIYGTNNRAPWTPARFSGSLLGGKAALTLSGAQPEDEAEYYCALWYSNHWVFGGGTKLTVL
notes: as for B1
B3: 5Hg4-5Lg2 human Alya IgG1 (antibody, V domains shown)
VH: QVQLVQSGSELKKPGASVKVSCKASGYTFTDYWMHWVRQAPGQGLEWMGAIDTSDSYTSYNQKFKGRFVFSLDTSVSTAYLQICSLKAEDTAVYYCARDYGNFYYYAMDYWGQGTLVTVSS
VL: QAVVTQEPSLTVSPGGTVTLTCRSSTGAVTTSNYANWFQQKPGQAPRTLIYGTNNRAPWTPARFSGSLLGGKAALTLLGAQPEDEAEYYCALWYSNHWVFGGGTKLTVL
notes: as for B1
B4: 5Hg4-5Lg4 human Alya IgG1 (antibody, V domains shown)
VH: QVQLVQSGSELKKPGASVKVSCKASGYTFTDYWMHWVRQAPGQGLEWMGAIDTSDSYTSYNQKFKGRFVFSLDTSVSTAYLQICSLKAEDTAVYYCARDYGNFYYYAMDYWGQGTLVTVSS
VL: QSALTQPPSVSGSPGQSVTISCRSSTGAVTTSNYANWYQQPPGTAPKLMIYGTNNRAPGVPDRFSGSKSGNTASLTISGLQAEDEADYYCALWYSNHWVFGGGTKLTVL
notes: as for B1
B5: 5Hg5-5Lg2 human Alya IgG1 (antibody, V domains shown)
VH: EVQLVQSGAEVKKPGESLRISCKGSGYSFTDYWMHWVRQMPGKGLEWMGAIDTSDSYTSYNQKFKGQVTISADKSISTAYLQWSSLKASDTAMYYCARDYGNFYYYAMDYWGQGTLVTVSS
VL: QAVVTQEPSLTVSPGGTVTLTCRSSTGAVTTSNYANWFQQKPGQAPRTLIYGTNNRAPWTPARFSGSLLGGKAALTLLGAQPEDEAEYYCALWYSNHWVFGGGTKLTVL
notes: Humanised 5E3; human IgG1 Alya constant (239iCys, S442C, EU), lambda light chain; purified, unconjugated; also called 5HE5/5Lg2
B6: 5Hg2-5Lg3 human Alya IgG1 (antibody, V domains shown)
VH: QVQLVQSGAEVKKPGASVKVSCKASGYTFTDYWMHWVRQAPGQRLEWMGAIDTSDSYTSYNQKFKGRVTITRDTSASTAYMELSSLRSEDTAVYYCARDYGNFYYYAMDYWGQGTLVTVSS
VL: QTVVTQEPSFSVSPGGTVTLTCRSSTGAVTTSNYANWYQQTPGQAPRTLIYGTNNRAPGVPDRFSGSILGNKAALTITGAQADDESDYYCALWYSNHWVFGGGTKLTVL
notes: as for B1
B7: 5Hg2-5Lg6 human Alya IgG1 (antibody, V domains shown)
VH: QVQLVQSGAEVKKPGASVKVSCKASGYTFTDYWMHWVRQAPGQRLEWMGAIDTSDSYTSYNQKFKGRVTITRDTSASTAYMELSSLRSEDTAVYYCARDYGNFYYYAMDYWGQGTLVTVSS
VL: SYELTQPSSVSVSPGQTARITCRSSTGAVTTSNYANWFQQKPGQAPVLVIYGTNNRAPGIPERFSGSSSGTTVTLTISGAQVEDEADYYCALWYSNHWVFGGGTKLTVL
notes: as for B1

Key:
[1] = biological target: T1, human SEMA4A expressed on cells …; experiment: cell-based or functional assay
[2] = biological target: T1, human SEMA4A expressed on cells …; experiment: Mirrorball epitope competition on MM.1S cells; competitor: fixed 5E3 mouse IgG1
Text: The 5E3 epitope competition assay assessed the ability of the un-purified IgGs expressed in a human IgG1 backbone to compete for binding to the mouse 5E3 epitope on human SEMA4A endogenously expressed by MM.1S cells, a human multiple myeloma cell line. The assay utilised a secondary-Alexa Fluor 647 conjugate, 5E3 expressed in a mouse IgG1 (A) backbone (BioLegend®, San Diego, CA, 148402) and a Mirrorball fluorescence cytometer (SPT Labtech, UK). Binding of 5E3 mouse IgG1 to MM.1S cells was measured via an anti-mouse secondary labelled with Alexa Fluor 647 (Invitrogen, A21235) in the presence of a single concentration of each un-purified human IgG1. […] 10 μl undiluted un-purified IgG, contained in Expi293 expression medium (Gibco, UK, A1435101), were added to the assay plate (Greiner Bio-one, UK, 781906), followed by 10 ul of 1.2 nM 5E3 mouse IgG1 and 20 μl MM.1S cell suspension containing 1,500 cells that was spiked with 4 nM anti-mouse Alexa Fluor 647. The assay plate was incubated for 4 hours at room temperature, in the dark prior to reading on a Mirrorball fluorescence cytometer (SPT Labtech, UK) using a 640 nm laser for excitation and measuring emission in the FL-4 channel (650-690 nm). Data was analysed as Count x median mean intensity (x FLU). All dilutions were performed in Hanks' balanced salt solution (Sigma, UK; cat: H8264) containing 0.1% (w/V) BSA (Sigma, UK; cat: A9576). Maximum binding signal was determined by analysing the binding of 5E3 mouse IgG1 to MM.1S cells in the absence of competitor un-purified human IgG1. Background binding signal was determined by analysing the fluorescence generated in the absence of 5E3 mouse IgG1. Data were analysed and graphed using GraphPad Prism software (GraphPad Software, Inc, La Jolla, CA).
Hits from the primary screening were re-formatted into the human Alya IgG1 vector and re-expressed and purified as described in section 4.1. 5E3 epitope competition assay methods are described in section 3.2 and were used to test purified human Alya IgG1s. The purified human Alya IgG1s were diluted to a 4× stock and then serially diluted using 4-fold dilutions to generate a 10 point concentration response curve.

[3] = biological target: T2, mouse SEMA4A expressed on expi293 cells …; experiment: Mirrorball direct binding, dilution series on expi293 cells transiently transfected with mouse SEMA4A, anti-human Alexa Fluor 647

| Binder | IC50 (pM), Fab-ZAP cell kill, NCI-H929 [1] [pM] | Max % Cell Kill, Fab-ZAP, NCI-H929 [1] [%] | IC50 [2] [nM] | binding result [3] |
| --- | --- | --- | --- | --- |
| B1 | 119 | 50 | 20.4 | binds |
| B2 | 122 | 56 | 9.7 | binds |
| B3 | 151 | 58 | 8.4 | binds |
| B4 | 119 | 33 | 45.5 | binds |
| B5 | 167 | 51 | 14.9 | binds |
| B6 | 113 | 58 | 11.3 | binds |
| B7 | 42 | 22 | 71.8 | binds |
